# In US20050037949A1, “Mannose binding lectin and uses thereof” (priority 2002, published 2005):
# Where two headings read alike, the source gives them in different places.
# Experiments:
# [1] = target: MBL associated serine protease 2 (MASP2) (human) (UniProt O00187); assay: cell-based or functional assay
# [2] = target: MBL associated serine protease 2 (MASP2) (human) (UniProt O00187); assay: cell-based or functional assay; remark: listed apart in the source
# Sequence of MBL associated serine protease 2 (MASP2) (human) (O00187 16-686 limits assumed): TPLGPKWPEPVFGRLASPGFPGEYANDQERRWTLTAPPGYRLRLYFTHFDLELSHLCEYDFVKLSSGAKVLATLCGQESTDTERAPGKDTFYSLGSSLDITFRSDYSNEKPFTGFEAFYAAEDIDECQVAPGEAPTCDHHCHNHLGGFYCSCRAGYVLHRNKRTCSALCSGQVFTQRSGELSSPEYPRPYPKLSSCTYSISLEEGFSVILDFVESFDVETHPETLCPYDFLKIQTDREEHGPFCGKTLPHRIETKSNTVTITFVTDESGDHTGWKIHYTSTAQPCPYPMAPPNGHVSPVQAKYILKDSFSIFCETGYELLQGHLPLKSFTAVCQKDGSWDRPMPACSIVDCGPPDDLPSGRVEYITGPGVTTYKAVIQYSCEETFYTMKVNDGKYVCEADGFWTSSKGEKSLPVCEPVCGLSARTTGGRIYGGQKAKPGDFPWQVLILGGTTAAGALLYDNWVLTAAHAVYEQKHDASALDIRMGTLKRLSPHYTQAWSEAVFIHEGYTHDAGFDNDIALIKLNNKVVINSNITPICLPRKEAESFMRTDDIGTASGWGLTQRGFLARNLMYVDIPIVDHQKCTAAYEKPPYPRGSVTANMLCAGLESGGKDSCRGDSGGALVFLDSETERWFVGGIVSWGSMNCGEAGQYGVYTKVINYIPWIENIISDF
# Sequence of affinity purified MBL-MASP complex (P11226 21-248, one chain of several): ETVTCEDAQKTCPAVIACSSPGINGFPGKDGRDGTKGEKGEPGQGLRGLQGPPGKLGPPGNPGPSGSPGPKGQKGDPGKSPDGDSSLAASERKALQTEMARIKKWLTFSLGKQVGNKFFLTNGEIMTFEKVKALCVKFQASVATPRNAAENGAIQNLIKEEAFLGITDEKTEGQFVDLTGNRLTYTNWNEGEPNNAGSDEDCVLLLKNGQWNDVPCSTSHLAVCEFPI
substance,measurement,setting,value
affinity purified MBL-MASP complex (from UniProt P11226 21-248),C4 deposition at MBL 0.471 ug/mL,[1],0.054 U/ul
same,C4 deposition at MBL 1.065 ug/mL,[1],0.057 U/ul
same,C4 deposition at MBL 2.237 ug/mL,[1],0.104 U/ul
same,C4 deposition at MBL 2.802 ug/mL,[1],0.114 U/ul
same,C4 deposition at MBL 4.011 ug/mL,[1],0.138 U/ul
same,C4 deposition at MBL 4.681 ug/mL,[1],0.171 U/ul
same,C4 deposition at MBL 5.382 ug/mL,[1],0.159 U/ul
same,C4 deposition at MBL 6.814 ug/mL,[1],0.19 U/ul
same,C4 deposition at MBL 7.967 ug/mL,[1],0.203 U/ul
same,C4 deposition at MBL 10.998 ug/mL,[1],0.22 U/ul
same,C4 deposition at MBL 40 ug/mL,[1],0.292 U/ul
same,C4 deposition at MBL 50 ug/mL,[1],0.308 U/ul
same,C4 deposition at MBL 0.624 ug/mL,[2],0.05 U/ul
same,C4 deposition at MBL 1.032 ug/mL,[2],0.068 U/ul
same,C4 deposition at MBL 2.081 ug/mL,[2],0.103 U/ul
same,C4 deposition at MBL 3.3 ug/mL,[2],0.197 U/ul
same,C4 deposition at MBL 4.08 ug/mL,[2],0.138 U/ul
same,C4 deposition at MBL 4.42 ug/mL,[2],0.168 U/ul
same,C4 deposition at MBL 5.95 ug/mL,[2],0.172 U/ul
same,C4 deposition at MBL 6.94 ug/mL,[2],0.197 U/ul
same,C4 deposition at MBL 11.41 ug/mL,[2],0.204 U/ul
same,C4 deposition at MBL 15 ug/mL,[2],0.246 U/ul
same,"C4 deposition at MBL 25 µg/mL (previous assay, same batch)",[2],0.27 U/µl
same,C4 deposition at MBL 40 ug/mL,[2],0.321 U/ul
same,C4 deposition at MBL 50 ug/mL,[2],0.289 U/ul
